Data on two molecules can be found in patent publication US20060270599A1, “Inhibiting angiogenesis using molecules that enhance plasmin formation or prolong plasmin activity” (Crossbeta Biosciences B.V., priority 2000, published 2006).

The subject of test [1] is mouse C26 colon carcinoma. Nature of the test: Subcutaneous tumor growth of mouse C26 colon carcinoma. The format is in vivo. Conditions: BALB/c mice, eleven days after tumor cell inoculation, mean ± standard error of the mean, control 2719±366. The protocol:
FIG. 1: Effect of fibrin degradation products (FDP) on tumor growth. For comparison, treatments with Alteplase® (recombinant tPA) or endostatin is shown. FDP was given continuously using Alzet® pumps (Alza, Palo Alto, Calif., USA, type 2001 or 2002) loaded with 200 μl FDP (5 mg/ml). In addition, every other day, FDP was given subcutaneously at a dose of 7 mg/kg.
A model of subcutaneous tumor growth of a mouse C26 colon carcinoma was used to evaluate the effects of FDP. Eleven days after tumor cell inoculation, tumors of the control group had reached a volume of 2719±366 mm^3. In mice treated with FDP, the mean tumor growth was 719±188 mm^3. […] Treatment with tPA, which generates plasmin, suppressed tumor growth to a similar degree (tumor volume 492±215 mm^3) as FDP.
The mouse colon adenocarcinoma cell line C-26 was maintained as a monolayer culture in Dulbecco's Minimal Essential Medium (DMEM) supplemented with 10% heat-inactivated fetal calf serum, penicillin (100 units/ml), and streptomycin (100 μg/ml) in a 5% CO2 environment. […] The presence of single cell suspension was confirmed by phase contrast microscopy, and cell viability was determined by trypan blue staining. […]
The statistical significance of differences between groups was calculated by applying Student's 2-tailed t-test. […]

Test [2] deals with tPA-mediated plasmin formation from plasminogen (Homo sapiens, UniProt P00750). Briefly: Measurement of plasmin activity (tPA-mediated plasmin generation, S-2251). Conditions: 50 μg/ml plasminogen, 30 U/ml tPA, 37° C. (FIG. 3). The format is biochemical. On the procedure: FIG. 3: Effect on plasmin activity of (A) endostatin, (B) human vitronectin fragment+(a.a. 262-367) (SEQ ID NO:1), (C) FDP, and (D) peptide derived from FDP (a.a. 148-160) (SEQ ID NO: 2).
Effect of FDP, FDP-derived synthetic peptide (a.a. 148-160) (SEQ ID NO:2), fragment (a.a. 262-367) vitronectin (SEQ ID NO:1), and endostatin on plasmin generation. Various concentrations were added.
Reactions were performed at 37° C. in HBS buffer (20 mM Hepes, 4 mM KCl, 137 mM NaCl, 3 mM CaCl2, 0.1% BSA, pH 7.4) containing 50 μg/ml plasminogen with or without the addition of endostatin or FDP. The reactions were started by the addition of tPA at a final concentration of 30 U/ml. At several time points, 20 μl samples were taken and stopped with 20 μl buffer containing 150 mM εACA and 150 mM EDTA. Plasmin activity was determined in 96-well plates after the addition of 20 μl chromogenic substrate S-2251 at a final concentration of 1.6 mM. Increase in absorbance was measured at 405 nm for 10 min.

B1: endostatin: Recombinant murine endostatin produced by Escherichia coli (protein, UniProt P39061 1591-1774, looked up)
Endostatin: HTHQDFQPVLHLVALNTPLSGGMRGIRGADFQCFQQARAVGLSGTFRAFLSSRLQDLYSIVRRADRGSVPIVNLKDEVLSPSWDSLFSGSQGQLQPGARIFSFDGRDVLRHPAWPQKSVWHGSDPSGRRLMESYCETWRTETTGATGQASSLLSGRLLEQKAASCHNSYIVLCIENSFMTSFSK
modifications: Endostatin
notes: Recombinant murine endostatin produced by Escherichia coli
With B1, the tumor volume in test [1] turned out to be 1112±372 mm^3. Further, the “stimulation of tPA-mediated plasmin formation” value in test [2] was “ability to stimulate tPA-mediated plasmin formation”.

B2: tPA: Alteplase (recombinant tPA), tissue plasminogen activator (protein, UniProt P00750 36-562, looked up)
Tissue-type plasminogen …: SYQVICRDEKTQMIYQQHQSWLRPVLRSNRVEYCWCNSGRAQCHSVPVKSCSEPRCFNGGTCQQALYFSDFVCQCPEGFAGKCCEIDTRATCYEDQGISYRGTWSTAESGAECTNWNSSALAQKPYSGRRPDAIRLGLGNHNYCRNPDRDSKPWCYVFKAGKYSSEFCSTPACSEGNSDCYFGNGSAYRGTHSLTESGASCLPWNSMILIGKVYTAQNPSAQALGLGKHNYCRNPDGDAKPWCHVLKNRRLTWEYCDVPSCSTCGLRQYSQPQFRIKGGLFADIASHPWQAAIFAKHRRSPGERFLCGGILISSCWILSAAHCFQERFPPHHLTVILGRTYRVVPGEEEQKFEVEKYIVHKEFDDDTYDNDIALLQLKSDSSRCAQESSVVRTVCLPPADLQLPDWTECELSGYGKHEALSPFYSERLKEAHVRLYPSSRCTSQHLLNRTVTDNMLCAGDTRSGGPQANLHDACQGDSGGPLVCLNDGRMTLVGIISWGLGCGQKDVPGVYTKVTNYLDWIRDNMRP
For B2, in test [1], the tumor volume stood at 492±215 mm^3.
